The source of these data is US20230265458A1.

The target in test [1] is human CD19 (hCD19, hCD19 variant 2), expressed on U87MG cells from the sRRVe-F4-hCD19 vector (human) (UniProt P15391). The test can be described thus: cell-based or functional assay.
In test [2] the target is truncated human CD19 (hCD19t, CD19t), 323 amino acids, 233 amino acids of the cytoplasmic domain removed (human) (UniProt P15391). Kind of test: cell-based or functional assay.

With “anti-CD19 CAR-T (chimeric antigen receptor against CD19 on T cells)”, in test [1], the decrease in cell viability, WST-1 assay, E:T ratio 0.5:1, first day; U87MG cells transfected with sRRVgp-F4-DsRed/sRRVe-F4-hCD19 was 54.9% and the decrease in cell viability, WST-1 assay, E:T ratio 1:1, within 1 day; U87MG cells transfected with sRRVgp-F4-DsRed/sRRVe-F4-hCD19 amounted to 25.8%. In test [2], the decrease in cell viability, WST-1 assay, E:T ratio 0.5:1, first day; U87MG cells transfected with sRRVgp-F4-hCD19t/sRRVe-F4-TK turned out to be 54.3%; the decrease in cell viability, WST-1 assay, E:T ratio 0.5:1, first day; U87MG cells transfected with sRRVgp-F4-yCD/sRRVe-F4-hCD19t came out at 58.2%; the decrease in cell viability, WST-1 assay, E:T ratio 1:1, within 1 day; U87MG cells transfected with sRRVgp-F4-hCD19t/sRRVe-F4-TK was 24.8%; the decrease in cell viability, WST-1 assay, E:T ratio 1:1, within 1 day; U87MG cells transfected with sRRVgp-F4-yCD/sRRVe-F4-hCD19t is 20%.
